In patent US20190269761A1 one finds urea concentration required to remove, urea concentration required to dissociate and percentage of BAF complexes that contain wild-type SS18 data, which are given here for two substances.

The target of experiment [1] is mSWI/SNF (BAF) complexes, endogenous. Nature of the experiment: urea denaturation and IP, as restated in the discussion; complexes of synovial sarcoma cells.
Experiment [2] shares this target. Nature of the experiment: urea denaturation of 293T nuclear extract followed by anti-Brg IP and immunoblot. In general terms: In western blotting, separated proteins are transferred to a membrane and probed.
The target is the same in experiment [3]. Nature of the experiment: quantitative densitometry of anti-SS18 immunoblot of glycerol gradient, Aska-SS cells bearing SS18-SSX1.
For experiment [4] the target is unchanged. Nature of the experiment: urea denaturation and IP, as restated in the discussion.

As for “SS18-SSX1 fusion protein (from UniProt Q15532 1-379)”, the urea concentration required to remove in experiment [1] is 8 M.

In experiment [2], “SS18 (wild-type, endogenous human) (from UniProt Q15532 2-418)” yielded a urea concentration required to dissociate of 5 M. In experiment [3], the percentage of BAF complexes that contain wild-type SS18 was in the range of 2 to 8%. This substance had a urea concentration required to remove in experiment [4] of 8 M.
